This note sets out measurements from US20230242658A1 (published 2023).

Residue numbers refer to the chain shown, from its start. Some results are limits rather than exact numbers.

B1: PR007286 (antibody, human IgG1, V domains shown)
VH: EVQLVESGGGLVKPGGSLRLSCAASGFTFSDYYMSWIRQAPGKGLEWVSYISSSGSTIYYADSVKGRFTISRDNAKNSLYLQMNSLRAEDTAVYYCARVKPVAGTWDWFDPWGQGTPVTVSS
notes: HCAb, heavy chain only, human IgG1 Fc; also called R1016P142D03
B2: PR007299 (antibody, human IgG1, V domains shown)
VH: EVQLVESGGGLVKPGGSLRLSCAASGFTFSDYQMSWLRQAPGKGLEWVSYISSSGRTIYYADSVKGRFTISRDNAKNSVSLQMNSLRAEDTAVYYCAREGRFFPGQGTPVTVSS
notes: HCAb, heavy chain only, human IgG1 Fc; also called R1016P149H12
B3: PR001758 (antibody, human IgG1, V domains shown)
VH: EVQLLESGGGLVQLGGSLRLSCAASGFTFSRYAMTWVRQAPEKGLEWVSSISGSGDDTYYGDSVKGRFTISRDNSQNTVYLQMNSLRAEDTAVYFCAKEKAGTTGDYYYNVDVWGQGTTVTVSS
notes: HCAb, heavy chain only, human IgG1 Fc; also called 1016P0010B11
B4: PR007295 (antibody, human IgG1, V domains shown)
VH: EVQLVESGGGLVKPGGSLRLSCAASGFTFSDYYMSWIRQAPGKGLEWVSYISNNGSTIYYADSVKGRFTISRDNAKNSLYLQMNSLRAEDTAVYYCARVRPGGSGNYWDWFDPWGQGTMVTVSS
notes: HCAb, heavy chain only, human IgG1 Fc; also called R1016P147A09
B5: PR007291 (antibody, human IgG1, V domains shown)
VH: B4 VH with A23V, A24T, S35N, L45Q, N53G, M119P
notes: HCAb, heavy chain only, human IgG1 Fc; also called R1016P145C07
B6: PR007297 (antibody, human IgG1, V domains shown)
VH: B4 VH with N53R, N54S, M119L
notes: HCAb, heavy chain only, human IgG1 Fc; also called R1016P149F10
B7: PR007300 (antibody, human IgG1, V domains shown)
VH: B4 VH with A23T, A24T, S35N, I37V, M119P
notes: HCAb, heavy chain only, human IgG1 Fc; also called R1016P156E05
B8: PR007296 (antibody, human IgG1, V domains shown)
VH: EVQLVESGGGLVKPGGSLRLSCVASGFTFSDYYMSWFRQAPGKGLEWVSYISGSGTTIDYADSVKGRFTISRDNAKNSLYLQMNSLRAEDTAVYYCAREREAVAGTLDFDNWGQGTPVTVSS
notes: HCAb, heavy chain only, human IgG1 Fc; also called R1016P147B10
B9: PR001759 (antibody, human IgG1, V domains shown)
VH: EVQLLESGGGLVQPGGSLRLSCAASGFTFSSYAMSWFRQPPETGLQWVSSIGGSGGDTYYADSVKGRFTISRDNSKNTLYLQMNSLRAEDTAVYYCAKEGSNGTDDNYYDVDVWGQGTTVTVSS
notes: HCAb, heavy chain only, human IgG1 Fc; also called 1016P0010D7
B10: PR007143 (bispecific antibody, human IgG1, kappa)
light: DIQMTQSPSTLSASVGDRVTVTCRASQSIYIWLAWYQQKPGKAPNLLIYKASSLETGVPSRFSGSGSGTEFTLTISSLQPDDFATYYCQQYYGSSRTFGQGTKVEIKRTVAAPSVFIFPPSDEQLKSGTASVVCLLNNFYPREAKVQWKVDNALQSGNSQESVTEQDSKDSTYSLSSTLTLSKADYEKHKVYACEVTHQGLSSPVTKSFNRGEC
heavy: EVQLVESGGGLVQPGGSLRLSCAASGFTFSSYWMSWVRQAPGKGLEWVANIKQEGSEKYYVDSVKGRFTISRDNAKNSLYLQMNSLRAEDTAVYYCARDRAVAGAFDIWGQGTMVTVSSASTKGPSVFPLAPSSKSTSGGTAALGCLVKDYFPEPVTVSWNSGALTSGVHTFPAVLQSSGLYSLSSVVTVPSSSLGTQTYICNVNHKPSNTKVDKKVEPKSCDKTHTCPPCPAPEAAGAPSVFLFPPKPKDTLMISRTPEVTCVVVDVSHEDPEVKFNWYVDGVEVHNAKTKPREEQYNSTYRVVSVLTVLHQDWLNGKEYKCKVSNKALPAPIEKTISKAKGQPREPQVYTLPPSREEMTKNQVSLTCLVKGFYPSDIAVEWESNGQPENNYKTTPPVLDSDGSFFLYSKLTVDKSRWQQGNVFSCSVMHEALHNHYTQKSLSLSPGGGSGGSEVQLVESGGGLVKPGGSLRLSCVASGFTFSDYYMSWFRQAPGKGLEWVSYISGSGTTIDYADSVKGRFTISRDNAKNSLYLQMNSLRAEDTAVYYCAREREAVAGTLDFDNWGQGTPVTVSS
notes: PD-L1x4-1BB IgG-VH: PR000265 + VH of PR007296 at heavy-chain C-terminus
B11: PR007142 (bispecific antibody, human IgG1, kappa)
light: B10 light
heavy: EVQLVESGGGLVQPGGSLRLSCAASGFTFSSYWMSWVRQAPGKGLEWVANIKQEGSEKYYVDSVKGRFTISRDNAKNSLYLQMNSLRAEDTAVYYCARDRAVAGAFDIWGQGTMVTVSSASTKGPSVFPLAPSSKSTSGGTAALGCLVKDYFPEPVTVSWNSGALTSGVHTFPAVLQSSGLYSLSSVVTVPSSSLGTQTYICNVNHKPSNTKVDKKVEPKSCDKTHTCPPCPAPEAAGAPSVFLFPPKPKDTLMISRTPEVTCVVVDVSHEDPEVKFNWYVDGVEVHNAKTKPREEQYNSTYRVVSVLTVLHQDWLNGKEYKCKVSNKALPAPIEKTISKAKGQPREPQVYTLPPSREEMTKNQVSLTCLVKGFYPSDIAVEWESNGQPENNYKTTPPVLDSDGSFFLYSKLTVDKSRWQQGNVFSCSVMHEALHNHYTQKSLSLSPGGGSGGSEVQLVESGGGLVKPGGSLRLSCAASGFTFSDYYMSWIRQAPGKGLEWVSYISNNGSTIYYADSVKGRFTISRDNAKNSLYLQMNSLRAEDTAVYYCARVRPGGSGNYWDWFDPWGQGTMVTVSS
notes: PD-L1x4-1BB IgG-VH: PR000265 + VH of PR007295 at heavy-chain C-terminus
B12: PR007138 (bispecific antibody, human IgG1, kappa)
light: B10 light
heavy: B11 heavy with A477V, A478T, S489N, L499Q, N507G, M573P
notes: PD-L1x4-1BB IgG-VH: PR000265 + VH of PR007291 at heavy-chain C-terminus
B13: PR007146 (bispecific antibody, human IgG1, kappa)
light: B10 light
heavy: B10 heavy with V477A, F491V, G507S, T510S, Y534F, Q536E, A556E, P571L
notes: PD-L1x4-1BB IgG-VH: PR000265 + VH of PR007298 at heavy-chain C-terminus
B14: PR007149 (bispecific antibody, human IgG1, kappa)
light: B10 light
heavy: B11 heavy with A477T, A478T, S489N, I491V, M573P
notes: PD-L1x4-1BB IgG-VH: PR000265 + VH of PR007300 at heavy-chain C-terminus
B15: PR007145 (bispecific antibody, human IgG1, kappa)
light: B10 light
heavy: B11 heavy with N507R, N508S, M573L
notes: PD-L1x4-1BB IgG-VH: PR000265 + VH of PR007297 at heavy-chain C-terminus

T1 sequence (Q07011 24-255): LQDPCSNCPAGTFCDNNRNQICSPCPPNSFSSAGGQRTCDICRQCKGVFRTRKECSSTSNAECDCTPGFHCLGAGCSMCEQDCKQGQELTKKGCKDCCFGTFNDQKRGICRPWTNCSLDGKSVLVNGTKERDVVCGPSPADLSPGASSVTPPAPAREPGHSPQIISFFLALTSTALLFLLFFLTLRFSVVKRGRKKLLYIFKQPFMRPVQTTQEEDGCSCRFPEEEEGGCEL

The target in the first assay is 4-1BB on HEK293/4-1BB/NF-kb reporter cells. Kind of assay: cell-based or functional assay.
Regarding B1, the “EC50, NF-kb luciferase reporter, CHO-K1/CD32b crosslinking” value (“EC50, NF-kb luciferase reporter” below) was below 0.8 nM.
As for B2, the “EC50, NF-kb luciferase reporter” value is below 0.8 nM.
On the same count and under the same terms, for B3 the value was below 0.8 nM.
On the same count and under the same terms, for B4 the value was below 0.8 nM; for B5, below 0.8 nM; for B6, below 0.8 nM.
As for B7, the “EC50, NF-kb luciferase reporter” value was below 0.8 nM.
Consider B8, for which the “EC50, NF-kb luciferase reporter” value is below 0.8 nM.
For B9, the “EC50, NF-kb luciferase reporter” value was below 0.8 nM.

Another assay has as its target T1, human 4-1BB on CHO-K1 cells (human, UniProt Q07011 24-255).
T1 construct: whole, on cells; also called CHO-K1/hu 4-1BB; CHO-K1/hu4-1BB
Nature of the assay: FACS, CHO-K1/hu 4-1BB cells. (A flow cytometer gives signals particle by particle.)
As to B1, the binding result is on record as “binds”.
With B2, the binding result is on record as “binds”.
Consider B3, for which the EC50 was below 0.3 nM.
Take B4: the binding result is “binds”.
Turning to B5, the binding result was “binds”.
Take B6: the binding result was “binds”.
The same measure, in the same setting: then B7, with “binds”; and B8, with “binds”.
B9 gave an EC50 below 0.3 nM.

Another assay has as its target T2, histidine-labeled cynomolgus monkey 4-1BB protein (cynomolgus monkey).
T2 construct: also called Monkey 4-1BB protein antigen (histidine-labeled); cynomolgus monkey 4-1BB protein and his tag (Acrobiosystem, #41B-052H4)
Nature of the assay: BLI Octet RED96, AHC sensor, his-tagged antigen. The method, then:
(§1) Specifically, human 4-1BB protein and his tag (Acrobiosystem, #41B-H5227), or cynomolgus monkey 4-1BB protein and his tag (Acrobiosystem, #41B-052H4), were diluted to 400 nM with PBS buffer (pH 7.4) containing 0.1% (w/w) BSA and 0.02% (v/v) Tween 20, and incubated with the AHC sensor. A 40 nM 4-1BB antibody was incubated with the AHC sensor loaded with human 4-1BB protein or monkey 4-1BB protein at 30° C. for 3 min. The reaction mixture was incubated in PBS buffer (pH 7.4) containing 0.1% (v/w) BSA and 0.02% (v/v) Tween 20 at 30° C. for another 5 min The binding and separation signals between the 4-1BB antibody and 4-1BB protein were recorded by Octet Red 96 in real time. The affinity and association and dissociation constants were determined by Octet using software.
(BLI is a label-free optical method that tracks binding on a fibre tip over time.)
Turning to B3, the Kd turned out to be 7.41 nM, the Response came out at 0.274, the koff came out at 0.00112 s⁻¹ and the kon came out at 151000 M⁻¹ s⁻¹.
Molecule B9 returned a Kd of 11 nM, a Response of 0.283, a koff of 0.00237 s⁻¹ and a kon of 215000 M⁻¹ s⁻¹.

The target in the next assay is T3, histidine-labeled human 4-1BB protein (human, UniProt Q07011 24-186).
T3 construct: also called Human 4-1BB protein antigen (histidine-labeled); human 4-1BB protein and his tag (Acrobiosystem, #41B-H5227); not shown: histidine tag
T3 sequence (Q07011 24-186): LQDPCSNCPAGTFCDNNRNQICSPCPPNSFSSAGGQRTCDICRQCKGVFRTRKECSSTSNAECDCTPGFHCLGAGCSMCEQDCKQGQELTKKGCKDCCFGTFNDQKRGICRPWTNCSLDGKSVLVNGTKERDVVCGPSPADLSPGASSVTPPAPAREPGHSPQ
Nature of the assay: BLI Octet RED96, AHC sensor, his-tagged antigen. The method, then:
as §1
In the case of B3, the Kd was determined as 25.6 nM, the Response was 0.326, the koff worked out at 0.00578 s⁻¹ and the kon came to 226000 M⁻¹ s⁻¹.
Molecule B9 registered an equilibrium dissociation constant (Kd) of 12.3 nM, a Response of 0.284, a koff of 0.00389 s⁻¹ and a kon of 317000 M⁻¹ s⁻¹.

For the next assay, the target named is T4, human PD-L1 on CHO-K1 cells (human, UniProt Q9NZQ7 19-290).
T4 construct: whole, on cells; also called CHO-K1/hPDL1; CHO-K1/hPD-L1
T4 sequence (Q9NZQ7 19-290): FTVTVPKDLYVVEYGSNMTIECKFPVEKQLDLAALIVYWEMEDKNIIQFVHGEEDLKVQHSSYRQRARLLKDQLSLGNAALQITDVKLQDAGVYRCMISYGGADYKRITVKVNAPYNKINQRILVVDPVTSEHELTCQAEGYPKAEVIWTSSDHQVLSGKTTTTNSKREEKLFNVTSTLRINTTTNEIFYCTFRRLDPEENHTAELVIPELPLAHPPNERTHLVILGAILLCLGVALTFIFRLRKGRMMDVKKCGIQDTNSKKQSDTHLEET
Kind of assay: FACS, CHO-K1/hPD-L1 cells.
In the case of B10, the binding result is “binds”.
As for B11, the binding result is listed as “binds”.
As to B12, the binding result is reported as “binds”.
As to B13, the binding result is “binds”.
Regarding B14, the binding result is recorded as “binds”.
Still for that read-out and setting: then B15, with “binds”.

The next assay concerns the target T1, human 4-1BB on CHO-K1 cells. Nature of the assay: FACS, CHO-K1/hu4-1BB cells. The method, then: The binding abilities of the antibody molecules to a CHO-K1 cell strain highly expressing human 4-1BB (CHO-K1/hu4-1BB, GenScript, M00538) and a CHO-K1 cell strain highly expressing cynomolgus monkey 4-1BB (CHO-K1/cyno4-1BB, GenScript, M00569) were determined by flow cytometry FACS. Specifically, the cells were digested and resuspended in a complete medium, and the cell density was adjusted to 2×10⁶ cells/mL. Then, the cells were seeded in a 96-well V-bottom plate (Corning, #3894) at 100 μL/well (2×10⁵ cells/well) and centrifuged at 4° C. for 5 min, and the supernatant was discarded. Then, the serially diluted antibody molecules were added to the 96-well plate at 100 μL/well, and the mixtures were well mixed. The antibody molecules might serially diluted 3-fold from the highest final concentration 200 nM to obtain a total of 12 concentrations. hIgG1 iso (CrownBio, #C0001) was used as an isotype control. The cells were incubated at 4° C. for 1 h away from light. Then, the cells in each well were rinsed twice with 100 μL of pre-cooled FACS buffer (PBS buffer containing 0.5% BSA) and centrifuged at 500 g at 4° C. for 5 min, and then the supernatant was discarded. […] Then, the cells in each well were then rinsed twice with 200 μL of pre-cooled FACS buffer and centrifuged at 500 g at 4° C. for 5 min, and then the supernatant was discarded. Finally, a pre-cooled FACS buffer was added at 200 μL/well to resuspend the cells. The fluorescence signal values were read using a BD FACS CANTOII flow cytometer.
B10: the binding result was “binds”.
In the case of B11, the binding result is recorded as “binds”.
Regarding B12, the binding result is “binds”.
Still for that read-out and setting: for B13 the value was “binds”; for B14, “binds”; for B15, “binds”.

By EC50 is commonly meant the concentration giving half of the maximal effect. One may read the Kd as the constant that tells how readily two partners part at equilibrium. For orientation: koff means a measure of how fast the partners let go of each other. The term kon denotes the rate constant with which the complex forms.
